US20100093977A1

Assays:
[1] = biological target: muc-1 on muc-1 positive human cancer cells (DU145; T47D) (human) (UniProt P15941); test: flow cytometry, dye labelled IgG on muc-1 positive T47D (printed T74D) cells
[2] = biological target: muc-1 on muc-1 positive human cancer cells (DU145; T47D) (human) (UniProt P15941); test: flow cytometry, dye labelled IgG on DU145 cells, higher dose range
[3] = biological target: muc-1 on muc-1 positive human cancer cells (DU145; T47D) (human) (UniProt P15941); test: flow cytometry, dye labelled IgG 0.2 to 200 nM on DU145 cells

Chain of UniProt P15941 (P15941 24-1255, stated change not applied): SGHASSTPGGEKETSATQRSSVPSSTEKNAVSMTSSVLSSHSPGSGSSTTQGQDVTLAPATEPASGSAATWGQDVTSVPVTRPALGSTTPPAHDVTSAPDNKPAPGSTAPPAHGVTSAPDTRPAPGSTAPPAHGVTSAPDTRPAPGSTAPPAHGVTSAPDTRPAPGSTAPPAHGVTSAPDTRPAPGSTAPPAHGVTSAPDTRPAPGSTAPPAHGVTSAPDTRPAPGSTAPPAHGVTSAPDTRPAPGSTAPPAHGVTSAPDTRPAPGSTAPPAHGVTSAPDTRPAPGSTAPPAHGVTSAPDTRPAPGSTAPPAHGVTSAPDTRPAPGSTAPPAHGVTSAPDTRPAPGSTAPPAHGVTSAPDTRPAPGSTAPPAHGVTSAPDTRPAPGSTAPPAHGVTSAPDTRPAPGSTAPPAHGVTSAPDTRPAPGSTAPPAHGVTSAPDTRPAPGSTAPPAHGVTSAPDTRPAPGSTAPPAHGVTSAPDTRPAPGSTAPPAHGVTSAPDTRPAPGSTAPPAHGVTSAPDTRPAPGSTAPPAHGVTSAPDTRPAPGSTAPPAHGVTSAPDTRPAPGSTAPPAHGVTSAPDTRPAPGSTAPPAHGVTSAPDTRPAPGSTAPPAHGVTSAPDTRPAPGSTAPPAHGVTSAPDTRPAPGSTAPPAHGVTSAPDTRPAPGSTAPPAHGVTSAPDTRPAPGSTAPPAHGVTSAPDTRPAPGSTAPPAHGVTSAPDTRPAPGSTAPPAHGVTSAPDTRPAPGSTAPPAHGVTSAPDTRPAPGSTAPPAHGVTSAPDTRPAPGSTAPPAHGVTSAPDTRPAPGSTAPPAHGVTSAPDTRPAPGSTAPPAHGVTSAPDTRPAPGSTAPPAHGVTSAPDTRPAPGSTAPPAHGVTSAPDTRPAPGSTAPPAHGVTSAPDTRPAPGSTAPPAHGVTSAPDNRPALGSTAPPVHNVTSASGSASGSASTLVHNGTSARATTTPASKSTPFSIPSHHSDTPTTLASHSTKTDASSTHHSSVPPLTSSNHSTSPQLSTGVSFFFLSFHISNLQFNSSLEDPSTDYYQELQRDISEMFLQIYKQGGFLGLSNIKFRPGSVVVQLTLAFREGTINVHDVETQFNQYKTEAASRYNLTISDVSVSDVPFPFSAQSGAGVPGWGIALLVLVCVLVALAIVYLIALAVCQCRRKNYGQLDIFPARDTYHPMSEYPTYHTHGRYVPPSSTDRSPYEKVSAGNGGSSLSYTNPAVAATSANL

IgG concentration at which binding plateaus [1] [nM] | also measured | Substance
> 100 |  | hCTM01 S171C mutant IgG reduced with 5 mM 2-ME and labelled with AlexaFluor488-C5-maleimide (approximately 4 dyes per IgG; 3.9 dyes per IgG in FIG. 4) (antibody)
 | percent lower binding than kappa cys171-dye labelled S171C mutant IgG [2]: 8% | wild type CTM01 IgG labelled via lysine modification with AlexaFluor488-NHS ester (2 dyes per IgG) (antibody)
 | fold lower degree of binding than the S171C mutant labelled via kappa cys171 [3]: 6 fold | wild type CTM01 IgG labelled with AlexaFluor 488-C5-maleimide under identical conditions (0.7 dyes per IgG) (antibody)
20 |  | wild type hCTM01 IgG reduced with 20 mM 2-ME and labelled with AlexaFluor488-C5-maleimide (approximately 4 dyes per IgG; 3.6 dyes per IgG in FIG. 4) (antibody)
